Experimental data published in article PMC3576620, “Endocytosis of somatodendritic NCKX2 is regulated by Src family kinase-dependent tyrosine phosphorylation” (Frontiers in Cellular Neuroscience, 2013).
Positions count from the first letter of the chain named.

What was measured:
Assay in all cases: co-IP; HEK293 cells co-transfected with HA-AP2M1 and myc-NCKX2-loop variants; lysate (50 mM Tris-Cl pH 7.4, 150 mM NaCl, 1 mM EDTA, 0.5% Triton X-100) incubated with anti-c-myc agarose overnight at 4°C; eluted with c-myc peptide; anti-HA blot, densitometry, n = 5
Settings in all cases: partners not purified
[1] = molecular target: T1, c-myc-tagged cytoplasmic loop of NCKX2, Y371A mutant (rat, UniProt O54701-1 288-478, Y371A)
T1 construct: K+-dependent Na+/Ca2+ exchanger 2 (NCKX2), rat (NM_031743.2; O54701), cytoplasmic loop region, amino acids 288-478, with Y371A; also called myc-NCKX2-loop Y371A; source: HEK293, transfected (calcium phosphate), in lysate; not shown: c-myc, N-terminal, kept
T1 sequence (looked up): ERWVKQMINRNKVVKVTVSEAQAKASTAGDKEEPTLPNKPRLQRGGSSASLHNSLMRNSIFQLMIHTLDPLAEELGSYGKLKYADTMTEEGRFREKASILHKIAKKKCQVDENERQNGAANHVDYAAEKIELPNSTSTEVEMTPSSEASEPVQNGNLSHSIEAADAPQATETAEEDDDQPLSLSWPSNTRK

[2] = molecular target: T2, c-myc-tagged cytoplasmic loop of NCKX2, phosphomimetic mutant Y365E (rat, UniProt O54701-1 288-478, Y365E)
T2 construct: K+-dependent Na+/Ca2+ exchanger 2 (NCKX2), rat (NM_031743.2; O54701), cytoplasmic loop region, amino acids 288-478, with Y365E; also called myc-NCKX2-loop Y365E; source: HEK293, transfected (calcium phosphate), in lysate; not shown: c-myc, N-terminal, kept
T2 sequence (looked up): T1 sequence (looked up) with Y78E, A84Y

[3] = molecular target: T3, c-myc-tagged cytoplasmic loop of NCKX2 (myc-NCKX2-loop), wild type (rat, UniProt O54701-1 288-478)
T3 construct: K+-dependent Na+/Ca2+ exchanger 2 (NCKX2), rat (NM_031743.2; O54701), cytoplasmic loop region, amino acids 288-478, in pcDNA3.1(+); also called WT; source: HEK293, transfected (calcium phosphate), in lysate; not shown: c-myc, N-terminal, kept
T3 sequence (looked up): T1 sequence (looked up) with A84Y

B1: HA-tagged AP2M1 (μ subunit of adaptor protein complex 2) (natural protein, UniProt P84092 1-435, looked up)
chain: MIGGLFIYNHKGEVLISRVYRDDIGRNAVDAFRVNVIHARQQVRSPVTNIARTSFFHVKRSNIWLAAVTKQNVNAAMVFEFLYKMCDVMAAYFGKISEENIKNNFVLIYELLDEILDFGYPQNSETGALKTFITQQGIKSQHQTKEEQSQITSQVTGQIGWRREGIKYRRNELFLDVLESVNLLMSPQGQVLSAHVSGRVVMKSYLSGMPECKFGMNDKIVIEKQGKGTADETSKSGKQSIAIDDCTFHQCVRLSKFDSERSISFIPPDGEFELMRYRTTKDIILPFRVIPLVREVGRTKLEVKVVIKSNFKPSLLAQKIEVRIPTPLNTSGVQVICMKGKAKYKASENAIVWKIKRMAGMKESQISAEIELLPTNDKKKWARPPISMNFEVPFAPSGLKVRYLKVFEPKLNYSDHDVIKWVRYIGRSGIYETRC
notes: AP2M1, μ subunit of adaptor protein complex 2 (NM_053837.1; P84092), cloned into pcDNA3; gift from Dr. Ryan (Kim and Ryan, 2009); also called HA-AP2M1; μ subunit of AP-2; source: HEK293, transfected (calcium phosphate), in lysate
amount of coimmunoprecipitated HA-AP2M1 [1]: 41.6 | amount of coimmunoprecipitated HA-AP2M1 [2]: 7.83 | amount of coimmunoprecipitated HA-AP2M1 [3]: 36.9
